According to US20150299277A1 (UNIVERSITY OF TOKYO, published 2015):

T1: Myc- and His-tagged C-terminal domain human PTX3 (animal cell expressed) (human, UniProt P26022 179-381)
T1 construct: also called C-terminal domain of PTX3; C-terminal fragment of PTX3; not shown: Myc and His tags of the pEF4/Myc-His B vector
T1 sequence: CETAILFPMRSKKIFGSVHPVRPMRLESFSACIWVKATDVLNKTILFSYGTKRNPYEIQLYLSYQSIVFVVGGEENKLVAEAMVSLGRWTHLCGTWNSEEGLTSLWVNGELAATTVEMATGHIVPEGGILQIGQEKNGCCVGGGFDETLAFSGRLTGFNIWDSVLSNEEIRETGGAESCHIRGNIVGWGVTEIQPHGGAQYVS

B1: histone H3 fragment H3-6 (peptide)
peptide: EIRRYQKSTELLIRKLPFQR
B2: histone H3 fragment H3-11 (peptide)
peptide: LVGLFEDTNLCAIHAKRVTI

Key:
[1] = molecular target: T2, Myc- and His-tagged full-length human PTX3 (human, UniProt P26022 18-381); assay: dot blot: fragments on nitrocellulose, PTX3 overlay, anti-myc detection (FIG. 12A left)
T2 construct: also called full-length PTX3; Myc-tagged full-length PTX3; not shown: Myc and His tags of the pEF4/Myc-His B vector

[2] = molecular target: T1, Myc- and His-tagged C-terminal domain …; assay: as above

| Binder | binding result [1] | binding result [2] |
| --- | --- | --- |
| B1 | binds |  |
| B2 | binds | binds |
